Test results from patent US11976099B2, “Compositions and methods for treatment of bone associated diseases” (THE NATIONAL INSTITUTE FOR BIOTECHNOLOGY IN THE NEGEV LTD., priority 2016, dated 2024).
Where “and” joins values, the source holds several entries; their conditions need not be identical. Identical values can stand only once.

How the values were obtained:
[1] = tested on: CTX-I (carboxy-terminal collagen crosslinks); test: CTX-I serum ELISA in ovariectomized mice (bone resorption); format: in vivo, C57 Rcc mice; set-up: CTX-I serum-concentration: unit not given here; details: 0.1 mg/kg
Description: In order to assess the effect of M-CSF variant on bone resorption, 10 weeks old C57 Rcc mice were ovariectomized resulting in a decrease in estrogen secretion similar to what occurs in osteoporosis. Two weeks post-surgery the mice were treated with M-CSF5.6 variant in three concentrations-0.1 mg/kg, 0.5 mg/kg and 15 mg/kg, in order to test the effect on bone resorption and to find the optimal dosage. For a period of 4 days, 0.1 and 0.5 mg/kg M-CSF5.6 treated mice received subcutaneous injections twice a day, while 15 mg/kg M-CSF5.6 treated mice received a daily subcutaneous injection. Mice were sacrificed 18-24 hours after the final injection. The amounts of type I collagen fragments in the blood were measured using CTX-I (carboxy-terminal collagen crosslinks) ELISA.
Animals were randomly divided into 2 control groups (SHAM, PBS) and 4 treatment groups (0.1, 0.5 and 15 mg/kg M-CSF5.6 and 0.1 mg/kg Alendronate as positive control). Except for the SHAM group, all animals were ovariectomized. *, ^, + represent a Haemolytic-serum sample, an unsuccessful ovariectomy procedure (as determined post mortem) and an outlier, respectively. CTX-I serum-concentration values of mice with unsuccessful ovariectomy were excluded from the analysis.

αvβ3 integrin = αvβ3 integrin (Homo sapiens, UniProt P05106+P06756); details: natural ligand and inhibitor; read-out: binding affinities of αvβ3 integrin; cited from earlier work
[2] = BS^3 chemical cross linking / SDS-PAGE dimerization assay; format: physicochemical
Description: Then, Tris was added to a final concentration of 30 mM and the mixture was incubated for 15 min at room temperature. Samples were denaturized and loaded on 15% SDS-PAGE. The gels were stained with coomassie blue (InstantBlue, Expedeon, CA, USA) and visualized with MiniBis pro (DNR Bio-Imaging Systems, Jerusalem, Israel).
BS^3 crosslinking assay—Human (4 μg) and murine M-CSFWT (1 μg), M-CSFC31S (1 μg) and M-CSFC31S,M27R (2.5 μg) were incubated with different concentrations of BS^3 [bis(sulfosuccinimidyl)suberate] (ThermoFisher Scientific, MA, USA) cross linker (0, 25 μM, 100 μM, 250 μM, 500 μM, 1000 μM and 2500 μM) for 30 min at room temperature. Then, […] was added to a final concentration of 30 mM, and the mixture was incubated for 15 min at room temperature. Samples were denaturized with sample buffer, boiled, and loaded on 15% SDS-PAGE for protein separation. The gels were stained with InstantBlue staining (Expedeon, CA, USA) for 40 min, followed by two washing steps with double distilled water. The gels were visualized with MiniBis pro (DNR Bio-Imaging Systems, Jerusalem, Israel).
Experiments were conducted in order to verify that the purified variants are incapable of dimerizing. The purified variants were incubated with a cross linker reagent (BS^3 [bis(sulfosuccinimidyl)suberate]) to enhance and visualize non-covalent intermolecular interactions. Following incubation, the reactions were stopped and the samples were loaded in denaturized conditions on a protein gel.
To validate the structural and computational analysis and to verify that M-CSFC31S,M27R is indeed a monomer, several biophysical assays were conducted. First, purified murine and human M-CSFWT, M-CSFC31S and M-CSFC31S,M27R were crosslinked via lysine residues using different amounts of BS^3 reagent [bis(sulfosuccinimidyl)suberate], and the proteins sizes were evaluated using SDS-PAGE (FIG. 16A). Murine M-CSFWT served as positive control, since it has a lysine in the dimerization site (K68), which facilitates the intermolecular cross-linking of the two monomers in the dimer. […] The dimer band became more prominent at higher BS^3 concentrations. It is likely that the non-covalent dimerization allows other lysines in M-CSFC31S to come into close proximity and crosslink.

mature osteoclasts = test: Actin ring formation in mature osteoclasts; format: cell-based, mouse; details: inhibitors 5 μM added to mature osteoclasts for 24 h; F-actin staining
Description: FIG. 23 are example pictures showing Actin ring formation in mature osteoclasts incubated with M-CSFRGD variants. Murine BMMs were allowed to differentiate into osteoclasts in the presence of M-CSF and RANKL for 72 h. Then, the cells were incubated for additional 24 h without (positive control) or with inhibitors (5 μM) followed by fixation and staining for F-actin and nuclei. Cells were able to form a solid actin ring (white arrowheads), scattered actin ring (white arrows) or amorphous actin distribution (barbed arrowheads). Pictures are representatives of 35 images acquired from five different wells per sample.
For a mature osteoclast to resorb bone properly, it must form unique structure termed “sealing zone”; this structure consists of an actin ring made from a dense actin mesh connected by adhesion complexes called podosomes. The formation of the actin ring involves several stages: at the beginning, podosomes are formed throughout the cell in a scattered manner, then groups of podosomes form small actin structures named belts and upon osteoclast maturation, the belts are moving to the cell periphery, cluster, and form the actin ring. Podosomes contain high levels of αvβ3 integrin which is essential for the formation of a proper actin ring with condensed podosome network. […]

human c-FMS = human c-FMS (Homo sapiens, UniProt P07333); details: previously disclosed (Elegheert et al. 2012); read-out: KD of M-CSF to c-FMS receptor; cited from earlier work
Chain of human c-FMS (P07333 20-972): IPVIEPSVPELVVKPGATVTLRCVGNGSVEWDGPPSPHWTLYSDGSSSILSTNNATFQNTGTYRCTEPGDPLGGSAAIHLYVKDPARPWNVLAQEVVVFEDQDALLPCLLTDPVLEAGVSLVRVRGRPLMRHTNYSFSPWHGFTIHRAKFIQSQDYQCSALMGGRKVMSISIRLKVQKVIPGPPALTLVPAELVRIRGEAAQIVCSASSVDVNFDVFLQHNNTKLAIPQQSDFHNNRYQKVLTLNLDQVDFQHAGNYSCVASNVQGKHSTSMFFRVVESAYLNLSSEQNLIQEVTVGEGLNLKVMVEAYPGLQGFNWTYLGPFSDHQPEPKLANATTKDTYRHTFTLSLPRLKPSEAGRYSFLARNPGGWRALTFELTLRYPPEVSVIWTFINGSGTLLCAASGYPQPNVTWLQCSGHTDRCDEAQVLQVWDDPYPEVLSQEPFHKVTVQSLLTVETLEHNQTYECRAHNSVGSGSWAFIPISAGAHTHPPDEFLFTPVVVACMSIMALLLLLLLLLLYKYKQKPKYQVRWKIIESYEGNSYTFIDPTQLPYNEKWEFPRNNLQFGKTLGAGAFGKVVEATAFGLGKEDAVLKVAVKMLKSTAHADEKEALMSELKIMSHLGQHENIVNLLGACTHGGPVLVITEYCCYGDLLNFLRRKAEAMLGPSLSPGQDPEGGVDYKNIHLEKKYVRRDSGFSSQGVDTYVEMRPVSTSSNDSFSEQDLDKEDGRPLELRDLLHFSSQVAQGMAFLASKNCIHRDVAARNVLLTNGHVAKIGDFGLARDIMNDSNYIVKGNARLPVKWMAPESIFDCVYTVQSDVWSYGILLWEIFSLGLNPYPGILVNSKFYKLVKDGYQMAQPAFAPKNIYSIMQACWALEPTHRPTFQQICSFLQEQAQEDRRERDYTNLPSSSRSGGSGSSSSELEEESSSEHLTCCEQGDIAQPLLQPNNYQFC

Chain of αvβ3 integrin (P06756 31-1048): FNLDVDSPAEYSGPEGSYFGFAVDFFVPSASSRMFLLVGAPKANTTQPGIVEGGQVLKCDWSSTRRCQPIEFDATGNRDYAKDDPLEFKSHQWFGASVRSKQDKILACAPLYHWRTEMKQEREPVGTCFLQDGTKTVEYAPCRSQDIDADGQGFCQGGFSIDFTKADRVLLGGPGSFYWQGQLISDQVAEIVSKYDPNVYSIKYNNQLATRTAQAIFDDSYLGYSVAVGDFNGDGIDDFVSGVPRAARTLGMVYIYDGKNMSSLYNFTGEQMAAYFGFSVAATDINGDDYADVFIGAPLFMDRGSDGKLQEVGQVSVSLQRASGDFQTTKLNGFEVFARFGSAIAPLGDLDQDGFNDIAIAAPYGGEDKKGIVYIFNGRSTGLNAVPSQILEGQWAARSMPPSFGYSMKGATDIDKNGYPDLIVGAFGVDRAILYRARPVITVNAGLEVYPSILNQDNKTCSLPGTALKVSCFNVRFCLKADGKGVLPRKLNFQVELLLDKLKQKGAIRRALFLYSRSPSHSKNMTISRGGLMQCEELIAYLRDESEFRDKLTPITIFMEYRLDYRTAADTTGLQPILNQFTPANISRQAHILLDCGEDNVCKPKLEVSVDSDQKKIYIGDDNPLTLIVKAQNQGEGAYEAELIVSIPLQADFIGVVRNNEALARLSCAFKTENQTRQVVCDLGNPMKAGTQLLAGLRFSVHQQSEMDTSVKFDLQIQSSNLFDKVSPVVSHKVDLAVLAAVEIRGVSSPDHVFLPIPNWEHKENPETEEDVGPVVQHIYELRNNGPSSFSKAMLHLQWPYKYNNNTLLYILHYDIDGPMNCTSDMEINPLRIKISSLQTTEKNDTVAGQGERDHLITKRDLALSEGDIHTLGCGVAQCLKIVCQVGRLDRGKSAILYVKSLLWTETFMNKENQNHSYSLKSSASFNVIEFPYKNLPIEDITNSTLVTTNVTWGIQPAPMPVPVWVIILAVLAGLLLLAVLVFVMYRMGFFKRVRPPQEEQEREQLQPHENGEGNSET
Chain of αvβ3 integrin (P05106 27-788): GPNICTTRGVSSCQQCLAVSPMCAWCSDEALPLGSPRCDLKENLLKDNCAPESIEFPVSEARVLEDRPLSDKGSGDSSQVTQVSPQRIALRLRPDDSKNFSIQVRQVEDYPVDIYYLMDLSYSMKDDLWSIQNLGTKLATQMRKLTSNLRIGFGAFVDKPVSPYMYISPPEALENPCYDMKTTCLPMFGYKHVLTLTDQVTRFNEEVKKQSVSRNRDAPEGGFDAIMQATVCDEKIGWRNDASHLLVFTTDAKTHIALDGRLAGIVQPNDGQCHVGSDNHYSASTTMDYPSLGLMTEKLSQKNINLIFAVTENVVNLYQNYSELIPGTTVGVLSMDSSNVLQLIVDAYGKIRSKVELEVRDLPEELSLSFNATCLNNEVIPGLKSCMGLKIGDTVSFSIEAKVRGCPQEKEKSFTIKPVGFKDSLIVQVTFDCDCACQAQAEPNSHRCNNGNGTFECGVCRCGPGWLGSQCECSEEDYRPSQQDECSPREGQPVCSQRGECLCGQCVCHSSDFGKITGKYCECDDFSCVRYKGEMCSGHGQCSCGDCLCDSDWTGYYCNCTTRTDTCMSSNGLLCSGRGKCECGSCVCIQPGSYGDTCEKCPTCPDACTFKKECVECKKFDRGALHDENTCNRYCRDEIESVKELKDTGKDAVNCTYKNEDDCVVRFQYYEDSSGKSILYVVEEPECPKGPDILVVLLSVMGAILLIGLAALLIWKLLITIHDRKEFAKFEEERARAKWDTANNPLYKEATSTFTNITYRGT

Molecule: NCCCC(O)(P(=O)(O)O)P(=O)(O)O [Alendronate, reference compound]
- change in CTX-I levels compared to the PBS treated animals [1]: significant decrease in CTX-I levels
- CTX-I serum-concentration ([1]; individual animals n 1-6, * haemolytic sample): 25.4 and 20.03* and 18.21* and 27.86* and 19.1 and 20.9

Molecule: cRGDfV [reference compound]
- Kd (αvβ3 integrin): 158 nM

Molecule: vitronectin: one of the ligands of αvβ3 integrin
- Kd (αvβ3 integrin): 40.7 nM

B1: M-CSFαvβ3: variant 4.22 with histidine to alanine mutations at positions 9 and 15; binds αvβ3 integrin but not c-FMS (protein)
chain: EEVSEYCSAMIGSGALQSLQRLIDQTSRGDSPSITFEFVDQEQLKDPVCYLKKAFLLVQDIMEDTMRFRDNTPNAIAIVQLQELSLRLKSCFTKDYEEHDKACVRTFYETPLQLLEKVKNVFNETKNLLDKDWNIFSKNCNNSFAECSSQGHERQSEGS
modifications: left off: small tags and cut ends
- dimerization after BS^3 cross linking ([2]; Example 4, BS^3 up to 2500 μM, FIG. 8): did not show any dimerization
- actin ring formation (mature osteoclasts): decreased the condensation and density of podosomes

B2: murine M-CSFWT: wild-type murine M-CSF, positive control in cross-linking (protein)
chain: KEVSEHCSHMIGNGHLKVLQQLIDSQMETSCQIAFEFVDQEQLDDPVCYLKKAFFLVQDIIDETMRFKDNTPNANATERLQELSNNLNSCFTKDYEEQNKACVRTFHETPLQLLEKIKNFFNETKNLLEKDWNIFTKNCNNSFAKCSSRDVVTKPDCNCLYPKATPSSDPASASPHQPPAPSMAPLAGLAWDDSQRTEGSSLLPSELPLRIEDPGSAKQRPPR
- monomer/dimer bands after BS^3 cross linking ([2]; Example 11, BS^3 0-2500 μM, SDS-PAGE, FIG. 16A): almost entirely in a band with a molecular weight that fits the dimer size

B3: M-CSF: native monocyte/macrophage colony stimulating factor, natural ligand of c-FMS (Uniprot P09603) (protein, UniProt P09603 33-554, looked up)
Macrophage colony-stimulating …: EEVSEYCSHMIGSGHLQSLQRLIDSQMETSCQITFEFVDQEQLKDPVCYLKKAFLLVQDIMEDTMRFRDNTPNAIAIVQLQELSLRLKSCFTKDYEEHDKACVRTFYETPLQLLEKVKNVFNETKNLLDKDWNIFSKNCNNSFAECSSQDVVTKPDCNCLYPKAIPSSDPASVSPHQPLAPSMAPVAGLTWEDSEGTEGSSLLPGEQPLHTVDPGSAKQRPPRSTCQSFEPPETPVVKDSTIGGSPQPRPSVGAFNPGMEDILDSAMGTNWVPEEASGEASEIPVPQGTELSPSRPGGGSMQTEPARPSNFLSASSPLPASAKGQQPADVTGTALPRVGPVRPTGQDWNHTPQKTDHPSALLRDPPEPGSPRISSLRPQGLSNPSTLSAQPQLSRSHSSGSVLPLGELEGRRSTRDRRSPAEPEGGPASEGAARPLPRFNSVPLTDTGHERQSEGSFSPQLQESVFHLLVPSVILVLLAVGGLLFYRWRRRSHQEPQRADSPLEQPEGSPLTQDDRQVELPV
- Kd (human c-FMS): 13.6 nM
